Here are results for seven molecules from patent publication US9688764B2, “Methods of treating breast cancer by administering anti-human prolactin receptor (PRLR) antibodies” (REGENERON PHARMACEUTICALS, INC., priority 2013, dated 2017).

For assay [1], the system named is PC3/PRLR tumors. The assay can be described thus: Tumor growth inhibition in xenograft-bearing mice. Format: in vivo, SCID mice. The note with it: for Average Tumor Growth Inhibition (%): SCID mice; for effect on PC3/PRLR tumor growth: multi-dose, especially at 15 mg/kg. The text has this:
Briefly, 20×10^6 MCF7/PRLR cells (ATCC HTB-22 transfected with full length hPRLR as previously described) were implanted subcutaneously into the left mammary fat pad of female NCr nude mice. In other studies, 10×10^6 PC3/PRLR (ATCC CRL-1435 transfected with full length hPRLR as previously described) were implanted subcutaneously into the left flank of male SCID mice. Additionally, 10×10^6 parental T47D (ATCC HTB-133) or […] T47D#11 cells (ATCC HTB-133 serially passaged in vivo as described below) were subcutaneously implanted into the left flank of female CB17 SCID mice. All mice were obtained from Taconic (Hudson, N.Y.). Each bolus of cells was supplemented with a 90-day estrogen release pellet (1.7 mg/pellet; Innovative Research America, Sarasota Fla.). Once tumors had reached an average volume of 250 mm^3, mice were randomized into groups of seven and dosed with anti-PRLR antibody-drug conjugates of the invention or control reagents. Control reagents included PBS vehicle, free methyl-disulfide DM1 (DM1-SMe) and isotype Control 1-DM1.
In multi-dose studies, mice were dosed once a week for a total of three weeks with tumor volumes and body weights being monitored twice weekly throughout the study. Test ADCs were dosed at 5 and/or 15 mg/kg in the multi-dose studies. In single-dose studies, mice received a single dose of test ADC, and tumor volumes and body weights were monitored twice weekly throughout the study. Test ADCs were dosed at 1, 2.5, 5, and 15 mg/kg in the single-dose studies. Average tumor size as well as tumor growth inhibition relative to the vehicle treated group were calculated for each group. Tumors were measured with calipers twice a week until the average size of the vehicle group reached 1000 mm^3. Tumor size was calculated using the formula (length×width^2)/2. Tumor growth inhibition was calculated according to the following formula: (1−((Tfinal−Tinitial)/(Cfinal−Cinitial)))*100, where T (treated group) and C (control group) represent the mean tumor mass on the day the vehicle group reached 1000 mm^3. […] Results are summarized in Tables 21-25 (multi-dose) and Table 26 (single dose). (NT=not tested in the particular experiment shown).

Assay [2] concerns HEK293 (non-expressing parental cells). The assay can be described thus: FACS cell surface binding. An outline of the steps: (§1)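 HEK293 lines stably expressing HA-tagged human, cynomolgus or mouse PRLR, native-expressing T47D and parental HEK293 tested by flow cytometry. Cells (1×10^5) stained with primary antibody 30 min on ice, then PE anti-human secondary; MFI expressed as fold over isotype control.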

The target in assay [3] is T1, HEK293/mPRLR (Mus musculus, UniProt Q08501).
T1 construct: HA; expressed in transfected cells; host or cells: HEK293
T1 sequence (Q08501 20-608): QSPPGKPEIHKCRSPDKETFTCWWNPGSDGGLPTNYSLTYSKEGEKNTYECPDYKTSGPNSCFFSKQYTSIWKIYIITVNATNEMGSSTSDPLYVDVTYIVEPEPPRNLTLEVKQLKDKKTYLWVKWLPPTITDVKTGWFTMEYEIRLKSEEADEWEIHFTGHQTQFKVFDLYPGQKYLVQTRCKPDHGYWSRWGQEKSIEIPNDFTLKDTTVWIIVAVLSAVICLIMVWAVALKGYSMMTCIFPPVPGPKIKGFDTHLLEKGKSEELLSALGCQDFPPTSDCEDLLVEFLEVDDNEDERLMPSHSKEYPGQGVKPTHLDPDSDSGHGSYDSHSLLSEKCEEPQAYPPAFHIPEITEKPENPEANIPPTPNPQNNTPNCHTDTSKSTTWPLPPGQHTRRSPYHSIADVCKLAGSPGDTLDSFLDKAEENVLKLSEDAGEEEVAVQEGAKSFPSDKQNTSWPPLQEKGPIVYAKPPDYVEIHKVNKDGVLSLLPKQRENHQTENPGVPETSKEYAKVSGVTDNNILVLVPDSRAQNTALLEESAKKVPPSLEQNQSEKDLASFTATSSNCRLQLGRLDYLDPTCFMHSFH
Put plainly: FACS cell surface binding. An outline of the steps:
as §1

Assay [4] deals with T2, HEK293/hPRLR (Homo sapiens, UniProt P16471).
T2 construct: HA; expressed in transfected cells; host or cells: HEK293
T2 sequence (P16471 25-622): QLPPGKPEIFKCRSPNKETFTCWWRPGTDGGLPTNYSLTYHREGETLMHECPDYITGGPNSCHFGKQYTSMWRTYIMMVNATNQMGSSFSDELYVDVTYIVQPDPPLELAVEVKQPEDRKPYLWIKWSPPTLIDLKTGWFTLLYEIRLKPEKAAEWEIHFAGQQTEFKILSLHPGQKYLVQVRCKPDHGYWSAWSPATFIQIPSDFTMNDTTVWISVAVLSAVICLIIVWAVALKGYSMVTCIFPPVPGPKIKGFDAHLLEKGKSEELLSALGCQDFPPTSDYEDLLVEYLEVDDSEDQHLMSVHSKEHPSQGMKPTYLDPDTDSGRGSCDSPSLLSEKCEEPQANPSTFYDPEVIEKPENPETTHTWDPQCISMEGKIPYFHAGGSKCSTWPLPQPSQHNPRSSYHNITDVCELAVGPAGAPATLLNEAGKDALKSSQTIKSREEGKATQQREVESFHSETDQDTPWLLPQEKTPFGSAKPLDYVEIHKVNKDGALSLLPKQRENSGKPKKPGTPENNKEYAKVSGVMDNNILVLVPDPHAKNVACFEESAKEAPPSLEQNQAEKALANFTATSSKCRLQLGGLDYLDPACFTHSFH
Put plainly: FACS cell surface binding. The essentials: as §1

Assay [5] concerns the target T3, T47D (native PRLR expressing cell line) (Homo sapiens, UniProt P16471).
T3 construct: a native PRLR expressing cell line (T47D); endogenous in cells; host or cells: T47D
T3 sequence (P16471 25-622): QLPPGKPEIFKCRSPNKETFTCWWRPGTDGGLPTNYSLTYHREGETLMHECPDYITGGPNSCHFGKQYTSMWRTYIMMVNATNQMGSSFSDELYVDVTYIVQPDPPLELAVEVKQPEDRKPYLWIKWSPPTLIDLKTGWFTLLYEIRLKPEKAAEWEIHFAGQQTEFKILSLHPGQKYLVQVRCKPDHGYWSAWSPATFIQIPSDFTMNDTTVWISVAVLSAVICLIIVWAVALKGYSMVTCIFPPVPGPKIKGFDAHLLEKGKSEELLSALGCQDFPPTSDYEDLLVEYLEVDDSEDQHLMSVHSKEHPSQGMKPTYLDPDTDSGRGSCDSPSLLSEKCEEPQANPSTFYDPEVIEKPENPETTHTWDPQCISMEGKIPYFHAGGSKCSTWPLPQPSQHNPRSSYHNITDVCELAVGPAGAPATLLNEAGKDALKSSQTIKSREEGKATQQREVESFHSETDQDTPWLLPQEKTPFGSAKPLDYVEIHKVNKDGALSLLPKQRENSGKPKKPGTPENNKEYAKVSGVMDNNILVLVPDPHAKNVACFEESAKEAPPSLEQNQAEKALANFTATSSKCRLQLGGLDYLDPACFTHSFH
The assay can be described thus: FACS cell surface binding. The essentials:
as §1

Assay [6] concerns HEK293/mfPRLR. Put plainly: FACS cell surface binding. Also on record: species or system macaca fascicularis. An outline of the steps: as §1
HEK293/mfPRLR, sequence (as listed by the source): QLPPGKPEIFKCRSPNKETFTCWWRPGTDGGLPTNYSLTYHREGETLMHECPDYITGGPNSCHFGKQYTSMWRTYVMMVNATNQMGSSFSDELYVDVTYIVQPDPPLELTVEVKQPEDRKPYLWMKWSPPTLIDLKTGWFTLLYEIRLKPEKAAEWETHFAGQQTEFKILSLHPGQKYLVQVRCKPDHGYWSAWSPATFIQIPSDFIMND

B1: H1H6958N2-DM1: anti-PRLR antibody H1H6958N2 conjugated to DM1 through an SMCC linker (conjugate)
VH: QVQLVESGGGVVQPGRSLRLSCGASGFTFRNYGMQWVRQGPGKGLEWVTLISFDGNDKYYADSVKGRFTISRDNSKNTLFLQMNSLRTEDTAVYYCARGGDFDYWGQGTLVTVSS
VL: DIQMTQSPSSLSASVGDRVTITCRASQDIRKDLGWYQQKPGKAPKRLIYAASSLHSGVPSRFSGSGSGTEFTLTISSLQPEDFATYYCLQHNSYPMYTFGQGTKLEIK
Regarding B1, in assay [1] (PC3/PRLR tumors TRIAL #1, multi-dose 5 mg/kg, Day 63), the “Average Tumor Growth Inhibition (%)” value was found to be 5%. For the same molecule, the “effect on PC3/PRLR tumor growth” value in assay [1] is reported as “demonstrated inhibition of tumor growth”.

B2: H1H6765P: anti-PRLR antibody, human IgG1 Fc; HCVR/LCVR SEQ ID NOs 18/26 (antibody, V domains shown)
VH: EVQLVESGGGVVRPGGSLRLSCVGSGFSFDDHGMNWVRQGPGKGLEWVSGFNWNGGSTNYAESVKGRFTISRDNARNSLFLQMNSLRAEDTALYYCVRGRSGWFNDAFDVWGPGTMVTVSS
VL: EIVLTQSPGTLSLSPGERATLSCRASQTINSNYLAWYRQKPGQTPRLLIYGTSSRATGIPDRFSGSGSGTDFSLTISRLEPEDFAVFYCQQYAGLPTFGPGTKVDIK
modifications: human IgG1 Fc
In the case of B2, the “FACS Cell Binding (Fold Above Background)” value in assay [2] came to 2 Fold Above Background; in assay [3] it was 1 Fold Above Background; in assay [4], 38 Fold Above Background; in assay [5], 40 Fold Above Background; in assay [6] it was 27 Fold Above Background. In addition, in assay [1] (PC3/PRLR tumors TRIAL #2, multi-dose 15 mg/kg, Day 55), the “Average Tumor Growth Inhibition (%)” value is reported as 1%.

B3: H1H6953N-DM1 (conjugate)
VH: EVQLLESGGGLVQPGGTLRLSCAASGFTFSAYAMSWVRQAPGKGLEWVSSINVRAGDTYYADSVKGRFTISRDNSKNTLFLLMNSLRAEDTAAYYCAKARYSSNWGFDFWGQGTLVTVSS
VL: DIVMTQSPDSLTVSLGARTTINCQSSQTILHSSNNHNYLAWYQQKPGLPPKLLIYWSSTRESGVPDRFSGSGSGTDFTLTISSLQAEDVAIYYCQQYSNTPYTFGQGTKLEIN
As to B3, the “effect on PC3/PRLR tumor growth” value in assay [1] is “demonstrated inhibition of tumor growth”.

B4: H1H6953N: human IgG1 Fc form of H1M6953N; anti-PRLR; HCVR/LCVR SEQ ID NOs 274/282 (antibody, V domains shown)
VH: EVQLLESGGGLVQPGGTLRLSCAASGFTFSAYAMSWVRQAPGKGLEWVSSINVRAGDTYYADSVKGRFTISRDNSKNTLFLLMNSLRAEDTAAYYCAKARYSSNWGFDFWGQGTLVTVSS
VL: DIVMTQSPDSLTVSLGARTTINCQSSQTILHSSNNHNYLAWYQQKPGLPPKLLIYWSSTRESGVPDRFSGSGSGTDFTLTISSLQAEDVAIYYCQQYSNTPYTFGQGTKLEIN
modifications: human IgG1 Fc
B4: the “FACS Cell Binding (Fold Above Background)” value in assay [2] was found to be 2 Fold Above Background; in assay [3] it was 2 Fold Above Background; in assay [4], 37 Fold Above Background; in assay [5] it was 40 Fold Above Background; in assay [6] it was 29 Fold Above Background.

B5: H1H6803P: anti-PRLR antibody, human IgG1 Fc; HCVR/LCVR SEQ ID NOs 226/234 (antibody, V domains shown)
VH: EVQLVESGGGVVRPGGSLRLSCAASGFKFDDYGMTWVRHVPGKGLEWVSGINWNGGRTGYTDSVKGRFTISRDNAKNSLYLQMNSLRAEDTALYHCAGARRDAFDIWGQGTMVTVSS
VL: DIQMTQSPSSLSASIGDRVTITCRASQNIIKYLNWYQQNAGKAPKLLIYTASSLQSGVPSRFSGSGSGTDFTLTISSLQPEDFATYYCQQSSSSPYTFGQGTKLEIK
modifications: human IgG1 Fc
Take B5: the “FACS Cell Binding (Fold Above Background)” value stood at 1 Fold Above Background in assay [2]; 1 Fold Above Background in assay [3]; 39 Fold Above Background in assay [4]; 39 Fold Above Background in assay [5]; 28 Fold Above Background in assay [6].

B6: H1H6801P: anti-PRLR antibody, human IgG1 Fc; HCVR/LCVR SEQ ID NOs 210/218 (antibody, V domains shown)
VH: QVQLQQSGPGLVKPSQTLSLTCVISGDSVSSNTAWNWVRQSPSRGLEWLGRTYYRSKWYNDYAVSVKSRITINPDTSKNQFSLLMNSVTPEDTAVYYCARVVRGLNYFDYWGQGTLVTVSS
VL: DIVMTQSPDSLAVSLGERATINCKSSQSVLYNSNNKNYLAWYQQKPGQPPKLLIYWSSSRESGVPDRFSGSGSGTDFTLTISGLQAEDVAIYYCQQYSTIPYTFGQGTKLEIK
modifications: human IgG1 Fc
In the case of B6, the “FACS Cell Binding (Fold Above Background)” value in assay [2] is on record as 7 Fold Above Background; in assay [3] it was 56 Fold Above Background; in assay [4] it was 47 Fold Above Background; in assay [5] it was 45 Fold Above Background; in assay [6], 88 Fold Above Background.

B7: H1H6804P: anti-PRLR antibody, human IgG1 Fc; HCVR/LCVR SEQ ID NOs 242/250 (antibody, V domains shown)
VH: QVTLKESGPVLVKPTQTLSLTCTVSGFSLSDAGMGVSWIRQPPGKALEWLAHIFSNDGKSYSTSLKSRLTISKDTSKRQVVLTMTNMDPVDTATYYCARIRTGTYSLYLDYWGQGTLVTVSS
VL: DIQMTQSPSSLSASVGDRVTITCRASQSINSYLNWYQQKPGKAPKLLLYFASSLQSGVPSRFSGSGSGTDFTLTISSLQPEDFASYYCQESYSTPWTFGQGTKVEIK
modifications: human IgG1 Fc
As for B7, the “FACS Cell Binding (Fold Above Background)” value in assay [2] was 1 Fold Above Background; in assay [3], 1 Fold Above Background; in assay [4], 1 Fold Above Background; in assay [5] it was 34 Fold Above Background; in assay [6], 29 Fold Above Background.
